Measured values taken from publication PMC2191786.

What follows are substances tested against B7-1 on stably transfected B7-1+ Chinese hamster ovary (CHO) cells (human) (UniProt P33681) (assay: ELISA).
UniProt P33681, sequence (P33681 35-288): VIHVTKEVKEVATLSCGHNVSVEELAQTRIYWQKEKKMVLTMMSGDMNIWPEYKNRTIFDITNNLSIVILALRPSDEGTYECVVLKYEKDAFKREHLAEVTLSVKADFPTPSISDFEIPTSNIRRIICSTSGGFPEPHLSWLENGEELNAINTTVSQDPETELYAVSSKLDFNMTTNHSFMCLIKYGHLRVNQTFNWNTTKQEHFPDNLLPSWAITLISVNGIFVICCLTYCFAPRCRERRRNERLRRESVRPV
Work on CTLA4Ig M99A (Fc fusion) yielded a percentage of B7-1 binding activity (of CTLA4Ig) of less than 0.1%. CTLA4Ig P102A (Fc fusion) was tested, and the percentage of B7-1 binding activity (of CTLA4Ig) was 3%. CTLA4Ig P103A (Fc fusion) showed a percentage of B7-1 binding activity (of CTLA4Ig) of less than 0.1%. CTLA4Ig Y100A (Fc fusion) gave a percentage of B7-1 binding activity (of CTLA4Ig) of 3%. With CTLA4Ig Y104A (Fc fusion) the percentage of B7-1 binding activity (of CTLA4Ig) was less than 0.1%.
